The results in this text go back to patent US20250376511A1 (Sanofi, published 2025).

The target in assay [1] is T1, Human active C1s (Complement Technology) (human, UniProt P09871 16-688).
T1 sequence: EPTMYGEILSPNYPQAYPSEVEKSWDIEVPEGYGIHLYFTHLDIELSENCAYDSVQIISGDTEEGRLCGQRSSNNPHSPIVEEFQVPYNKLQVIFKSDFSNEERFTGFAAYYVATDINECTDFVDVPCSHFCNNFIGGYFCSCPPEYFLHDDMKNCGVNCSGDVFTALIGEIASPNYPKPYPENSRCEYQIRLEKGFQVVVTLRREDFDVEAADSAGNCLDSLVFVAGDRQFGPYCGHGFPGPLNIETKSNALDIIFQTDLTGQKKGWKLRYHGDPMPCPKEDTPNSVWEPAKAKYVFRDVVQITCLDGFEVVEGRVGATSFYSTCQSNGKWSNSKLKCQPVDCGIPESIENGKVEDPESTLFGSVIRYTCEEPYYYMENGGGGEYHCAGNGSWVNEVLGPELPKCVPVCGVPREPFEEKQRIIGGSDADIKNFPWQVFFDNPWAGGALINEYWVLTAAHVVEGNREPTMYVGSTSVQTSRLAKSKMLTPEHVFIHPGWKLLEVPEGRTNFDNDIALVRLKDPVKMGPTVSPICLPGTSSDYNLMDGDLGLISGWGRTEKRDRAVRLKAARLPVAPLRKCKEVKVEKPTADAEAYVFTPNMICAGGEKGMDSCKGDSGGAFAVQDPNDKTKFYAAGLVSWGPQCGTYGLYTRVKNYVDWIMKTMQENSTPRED
Description: cell-based or functional assay.

In assay [2] the target is T1, Human active C1s (Complement Technology). Description: cell-based or functional assay. This is another data set of the same source.
Assay [3] concerns the target T2, His-tagged recombinant human TfR (produced in-house) (human, UniProt P02786 89-760).
T2 construct: also called hTfR; transferrin receptor 1
Description: hTfR affinity, SPR (method not restated for Table 1; same value as Table 2). The protocol: (§1) TfR and C1s binding using surface plasmon resonance (SPR): Analysis of antibody binding to TfR was performed on a Biacore™ T200 instrument using anti-His capture at 25° C. Anti-His (Qiagen) was buffer exchanged into PBS pH 7.2, diluted to 25 μg/mL in 10 mM sodium acetate pH 4.0 and directly immobilized to a series S CM5 chip to a surface density of ˜10,000 RU using the amine coupling kit provided by Cytiva. His-tagged recombinant human TfR (produced in-house) was diluted in HBS-EP+ pH 7.4 running buffer (10 mM HEPES pH 7.4, 150 mM NaCl, 3 mM EDTA, 0.05% surfactant P20) and injected for 5 sec at 20 μL/min flowrate to obtain capture level of 20 RU. Antibodies were serially diluted 2-fold from 90 to 5.625 nM in running buffer and injected over the captured TfR for 3 min followed by 9 min dissociation in buffer at 30 μL/min. Each cycle was regenerated with 10 mM glycine pH 1.5. To measure C1s binding, anti-human Fc (Jackson) was directly immobilized to a CM5 chip using amine chemistry. Antibodies were diluted to 2.5 μg/mL in HBS-EP+ pH 7.4 and captured to the chip for 15 sec at 20 μL/min flowrate. Human active C1s (Complement Technology) was serially diluted 2-fold from 20 to 0.625 nM in running buffer and injected over the captured antibodies for 180 sec at 50 μL/min followed by 9 min dissociation in buffer. The bound complex was removed from the chip each cycle with 40 mM HCl and 0.85% phosphoric acid. Sensorgrams were processed using the Biacore™ Insight software and fit to a 1:1 binding model to obtain kinetic constants.
(§2) The six bispecific anti-aC1s/anti-TfR antibodies were first tested for their affinity for both TfR and aC1s via surface plasmon resonance (SPR) (Table 2).

Assay [4] concerns the target T1, Human active C1s (Complement Technology). Description: SPR Biacore T200, antibody captured on anti-human Fc, human active C1s as analyte, 1:1 fit. The protocol: as §1, §2
A general note: In SPR one partner is held on a chip, and binding of the other changes the refractive index at the surface.

Assay [5] addresses T2, His-tagged recombinant human TfR …. As to the kind of experiment: SPR Biacore T200, His-tagged human TfR captured on anti-His, antibody as analyte, 25 C, 1:1 fit. The protocol:
as §1, §2

The target is the same in assay [6]. As to the kind of experiment: SPR Biacore T200 (Table 2). The protocol:
as §1, with “The bound complex was removed from the chip each cycle with 40 mM HCl and 0.85% phosphoric acid. Sensorgrams were processed using the Biacore™ Insight software and fit to a 1:1 binding model to obtain kinetic constants.” left out

By Kd is commonly meant the constant that tells how readily two partners part at equilibrium. One may read the koff as a measure of how fast the partners let go of each other. In general, kon refers to a measure of how fast the partners come together.

T2 sequence (P02786 89-760 limits assumed): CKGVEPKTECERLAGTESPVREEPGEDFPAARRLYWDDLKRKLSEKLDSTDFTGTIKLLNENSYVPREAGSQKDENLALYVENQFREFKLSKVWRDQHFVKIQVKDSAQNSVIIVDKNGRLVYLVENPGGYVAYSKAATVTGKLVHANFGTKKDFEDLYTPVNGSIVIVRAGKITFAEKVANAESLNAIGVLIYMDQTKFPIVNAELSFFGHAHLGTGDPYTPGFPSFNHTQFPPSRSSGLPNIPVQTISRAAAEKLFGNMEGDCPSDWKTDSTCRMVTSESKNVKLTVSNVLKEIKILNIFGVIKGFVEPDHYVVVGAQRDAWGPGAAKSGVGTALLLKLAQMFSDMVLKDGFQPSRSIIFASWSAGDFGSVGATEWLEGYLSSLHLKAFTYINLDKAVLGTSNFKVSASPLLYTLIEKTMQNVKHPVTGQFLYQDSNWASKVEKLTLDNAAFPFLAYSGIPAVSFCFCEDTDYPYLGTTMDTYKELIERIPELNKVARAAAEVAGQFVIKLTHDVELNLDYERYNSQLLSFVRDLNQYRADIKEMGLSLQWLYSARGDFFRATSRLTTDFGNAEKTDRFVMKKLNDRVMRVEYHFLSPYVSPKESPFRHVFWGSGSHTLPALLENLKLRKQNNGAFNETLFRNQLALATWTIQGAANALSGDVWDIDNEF

B1: aC1s_088 × 531v25 IgG4-PE/dK (bispecific antibody, V domains shown)
VH 1: QVQLVQSGAEVKKPGASVKLSCTASGFNIKDDYIHWVKEAPGQGLEWIGRIDPADGHTKYAPKFQVKVTITADTSTSTAYLELSSLRSEDTAVYYCARYGYGREVFDYWGQGTTVTVSS
VL 1: DIVLTQSPDSLAVSLGERATISCKASQSVDYDGDSYMNWYQKKPGQPPKILIYDASNLESGIPARFSGSGSGTDFTLTISSLEPEDFAIYYCQQSNEDPWTFGGGTKVEIK
VH 2: QVQLVQSGAEVKKPGASVKVSCKASGYTFTRYYLNWVRKAPGQGLEWIGMIDPSVSETHYAQKFQGRATLTVDKSTSTAYMELSSLRSEDTAVYYCSQIRLPYYYAMDSWGQGTTVTVSS
VL 2: DIQMTQSPSSLSASVGDRVTITCRASQDISSFLNWYQEKPGKAPKLLIYYTSRLQSGVPSRFSGSGSGTDYTLTISSLQPEDFATYYCQQGNTLPRTFGGGTKVEIK
notes: IgG4-PE Fc, dK, with charge pairing mutations; The starred variable domains are used, as for m5; also called aC1s_088-CM × 531v25 IgG4
B1: the “IC50, Wieslab Complement Pathway Assay (classical pathway, 1% NHS)” value (from here on “IC50 … (classical pathway, 1% NHS)”) in assay [1] stood at 1.63 µg/mL. Moreover, the “IC50, C3d deposition on neurons in iPSC tricultures with serum” value (from here on “IC50, C3d deposition on neurons”) in assay [2] stood at 29.3 µg/mL. Moreover, the Kd in assay [3] turned out to be 22.6 nM. In assay [4], this molecule had a Kd of 0.75 nM, an off-rate (koff) of 0.00246 s⁻¹ and a kon of 3.31e+06 M⁻¹ s⁻¹. Also, in assay [5], the dissociation constant Kd is 22.6 nM, the off-rate (koff) came out at 0.00413 s⁻¹ and the kon worked out at 183000 M⁻¹ s⁻¹.

B2: aC1s_088 × 531v23 IgG4-PE/dK (bispecific antibody, V domains shown)
VH 1: QVQLVQSGAEVKKPGASVKLSCTASGFNIKDDYIHWVKEAPGQGLEWIGRIDPADGHTKYAPKFQVKVTITADTSTSTAYLELSSLRSEDTAVYYCARYGYGREVFDYWGQGTTVTVSS
VL 1: DIVLTQSPDSLAVSLGERATISCKASQSVDYDGDSYMNWYQKKPGQPPKILIYDASNLESGIPARFSGSGSGTDFTLTISSLEPEDFAIYYCQQSNEDPWTFGGGTKVEIK
VH 2: QVQLVQSGAEVKKPGASVKVSCKASGYTFTRYYLNWVRKAPGQGLEWIGMIDPSVSETHYAQKFQGRATLTVDKSTSTAYMELSSLRSEDTAVYYCSQIRLPYYYAMDSWGQGTTVTVSS
VL 2: DIQMTQSPSSLSASVGDRVTITCRASQDISSFLNWYQEKPGKAPKLLIYYTSRLHSGVPSRFSGSGSGTDYTLTISSLQPEDFATYYCQQGNTLPRTFGGGTKVEIK
notes: IgG4-PE Fc, dK, with charge pairing mutations; The charge-mutated (starred) variable domains are used for both arms; also called aC1s_088-CM × 531v23 IgG4
Turning to B2, the “fold higher affinity than the 531v25 and 531v25.v6 variants” value in assay [6] was ~2 fold. The “IC50 … (classical pathway, 1% NHS)” value in assay [1] was 1.67 µg/mL. Also, in assay [2], the “IC50, C3d deposition on neurons” value stood at 16.2 µg/mL. The Kd in assay [3] is 9.65 nM; in assay [4], 0.79 nM; in assay [5], 9.65 nM. Also, the dissociation rate constant (koff) in assay [4] amounted to 0.00245 s⁻¹; in assay [5], 0.00183 s⁻¹. The kon in assay [4] is 3.14e+06 M⁻¹ s⁻¹; in assay [5], 189000 M⁻¹ s⁻¹.

B3: aC1s_088 × 531v25.v6 IgG4-PE/dK (bispecific antibody, V domains shown)
VH 1: QVQLVQSGAEVKKPGASVKLSCTASGFNIKDDYIHWVKEAPGQGLEWIGRIDPADGHTKYAPKFQVKVTITADTSTSTAYLELSSLRSEDTAVYYCARYGYGREVFDYWGQGTTVTVSS
VL 1: DIVLTQSPDSLAVSLGERATISCKASQSVDYDGDSYMNWYQKKPGQPPKILIYDASNLESGIPARFSGSGSGTDFTLTISSLEPEDFAIYYCQQSNEDPWTFGGGTKVEIK
VH 2: QVQLVQSGAEVKKPGASVKVSCKASGYTFTRYYLNWVRKAPGQGLEWIGMIDPSVSETHYAQKFQGRATLTVDKSTSTAYMELSSLRSEDTAVYYCSQIRLPYYYAMDSWGQGTTVTVSS
VL 2: DIQMTQSPSSLSASVGDRVTITCRASQDIESFLNWYQEKPGKAPKLLIYYTSRLQSGVPSRFSGSGSGTDYTLTISSLQPEDFATYYCQQGNTLPRTFGGGTKVEIK
notes: IgG4-PE Fc, dK, with charge pairing mutations; The starred variable domains are used, as for m5; also called aC1s_088-CM × 531v25.v6 IgG4
With B3, the “IC50 … (classical pathway, 1% NHS)” value in assay [1] was found to be 1.79 µg/mL. In addition, the “IC50, C3d deposition on neurons” value in assay [2] is 7.48 µg/mL. The Kd in assay [3] is 18.9 nM. In assay [4], this molecule returned a dissociation constant Kd of 0.76 nM, an off-rate constant (koff) of 0.00273 s⁻¹ and a kon of 3.59e+06 M⁻¹ s⁻¹. Further, in assay [5], the Kd turned out to be 18.9 nM, the koff was 0.00304 s⁻¹ and the kon is 161000 M⁻¹ s⁻¹.

B4: aC1s_088 × 531v23 IgG1-NNAS/dK (bispecific antibody, V domains shown)
VH 1: QVQLVQSGAEVKKPGASVKLSCTASGFNIKDDYIHWVKEAPGQGLEWIGRIDPADGHTKYAPKFQVKVTITADTSTSTAYLELSSLRSEDTAVYYCARYGYGREVFDYWGQGTTVTVSS
VL 1: DIVLTQSPDSLAVSLGERATISCKASQSVDYDGDSYMNWYQKKPGQPPKILIYDASNLESGIPARFSGSGSGTDFTLTISSLEPEDFAIYYCQQSNEDPWTFGGGTKVEIK
VH 2: QVQLVQSGAEVKKPGASVKVSCKASGYTFTRYYLNWVRKAPGQGLEWIGMIDPSVSETHYAQKFQGRATLTVDKSTSTAYMELSSLRSEDTAVYYCSQIRLPYYYAMDSWGQGTTVTVSS
VL 2: DIQMTQSPSSLSASVGDRVTITCRASQDISSFLNWYQEKPGKAPKLLIYYTSRLHSGVPSRFSGSGSGTDYTLTISSLQPEDFATYYCQQGNTLPRTFGGGTKVEIK
notes: IgG1-NNAS Fc, dK, with charge pairing mutations; The starred variable domains are used, as for m5; also called v23 variant
B4: the “fold higher affinity than the 531v25 and 531v25.v6 variants” value in assay [6] was ~2 fold. Besides, the “IC50 … (classical pathway, 1% NHS)” value in assay [1] amounted to 1.67 µg/mL. Besides, in assay [2], the “IC50, C3d deposition on neurons” value amounted to 13.9 µg/mL. In assay [4], this molecule yielded a Kd of 0.66 nM, an off-rate (koff) of 0.00275 s⁻¹ and an on-rate constant (kon) of 4.18e+06 M⁻¹ s⁻¹. Further, in assay [5], the equilibrium dissociation constant (Kd) stood at 10.3 nM, the koff worked out at 0.00197 s⁻¹ and the kon turned out to be 192000 M⁻¹ s⁻¹.
